# Experiment: soluble fraction after stress (log2 fold change); higher = more stays soluble; pooled small domains, quantitative proteomics
# Details: stress: 50 degC
# Method in brief: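 Each library was heated to 50°C as a stress step. The libraries, made up of small protein domains, were pooled and analysed at high throughput by quantitative proteomics. The reported value is the base-two logarithm of the fold change in each protein's soluble amount after stress, taken as a measure of aggregation propensity. The higher the value, the more protein stays in solution.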
row,Sequence,soluble fraction (log2)
1,HMSAPGYRAVYPGMLESERQTAYELLSSSGFDVKINTSSGELEVTTDRYHEARMVMASQNIPK,0.0432
2,HMHIVQEGDSLYGIARQYRITVEELRSLNALETADVIVPYQKLYV,-0.942
3,HMVAISNTSGLAGVAYWIQSNIPKGIDIRKDNPGIVTIKNWIDEEYRKGRTTTISEEEMFKLVREYMPEL,-1.77
4,HMTNELTEIFNSIRLTKKQKELLQSNYLSLRETYFLQGKTAFNLKFKNIAGLGKSTKKVLLEFFEESIE,-1.83
5,HMITDNEFLRIVSFLKQRYGIDMSQKKVIMNGRLENYLKSGGWSSFDEYMNDVEKDTSGDLEKTLVNFLTT,-0.537
6,HMVQISNTDDLYPIVQRIVDANPQSVEDYKNGKAKALGFLVGQMMKETKGKANPSMVNDLIIKAIEE,0.123
7,HMSGPFTELTPREREILSHLAEGQSNKVIARHLQISDGTVKLHVKAILRKLEVHSRVEAAVMAVEHGV,-1.96
8,HMRGIPEEVADVAIQWVARLDSNEISDADRAAFFAWLDASPINRWAYNDISESWAKLSILNEMGH,-1.6
9,HMGRKEIIVPNLLGKYAIEAGTILKNAGLLEGQAREENSDTYPAGQIMDQFPKANTPANENDKVDYVVSI,≥ 0.62
10,HMASISDRIRLLRAESHMTQEEFGRIFGISKPTVSFYEHGKSVPNDQIKTAIARYFGVSVDYLLGVTD,-1.89
11,HMGEIVVPDLIGKSLTEATRILSDSTLTVGKVNYQISSTLLPNTVLDQYPAPGNKLNSGNTVDLFITKE,-0.0436
12,HMPKHHIESVIPENFAGERLDKVLAVLWGTFSRAQLTRWIRDGSLLLDGHKVKPNTKVDGSEKIVLQAEVA,-0.891
13,HMNPETLTNGSVVKMSKANLSDELIIDMINNSPARFDLSSGALRSLEGEGVSKAVIESMKRATSG,0.191
14,HMDDVVVLPFTAEFARMSSDDFVREILVGKIGMKRFVVGYNHRFGSGQQGDFASLQRMQGELGFVAVRVG,0.0571
15,HMSSDLSNVVKIIDTLKHKKGALLPILHQIQREIGYIPLKTIDTIAKKLQQTPAEIHGVISFYHQFRTS,0.0942
16,HMQAKDVEIPNFVGKTLAEANADNKDNFNFVVESKYDASKELGVILEQEPAADSKLVKSGSQITLKV,≥ 0.62
17,HMVVLPGEVLRINVIQEGKEHGQGVGYMDDGTMVVIENGREFIGEYMEVNVTKVLQTAAGRMIFGRVD,-0.526
18,HMLISDENMLRDLVQAVLDENPKSVSDYKSGKTKAFGFLVGQTMKAVKGQADPMLVNKILTELLN,-0.0365
19,HMEQFRENIVRIYMEIDDYENGAKFLEMGNNRDASFYELAGDFYKYFGENELANENYDLAISA,-0.387
20,HMPYNRRYLISNADGALYTVEENGLVKLEETNLTAELFETRGMQDIPDGKLLITLHDPTILYWHDSENLFP,-1.19
21,HMPPELSDEVMEEAMSYLKNQYLNHGVKLEDYPALNKLFVDEAFRSEVIRKTQSNYKISYQSAMASLD,0.0219
22,HMKESRLFRILYYLLQHKKATAPELAEEFEVSVRTIYRDIDYISSAGVPIYATQGKDGGIAILDSF,-0.65
23,HMLGDAWSMLILRDAHSGFSRFDQFRKSLGIAPTMLTKRLSVLVDEGLLEKRQYSEHPPREEYVLTQAGQD,0.0822
24,HMIKILGSAYRHGLDDDDILRAWNYHIQEFFEGEDPEKIVRLGFDTHGRLLEIGGEIYPGGGEKIFHAM,-0.729
25,HMKLTNIQYETLKVVVESRAKIDEEEGITIKLEDIKKYIDQAISFTGLVGDDEDYKKLFADMEYRFKIQ,-2.38
26,HMQDLPPIHLSRGMTDYTLVRSRRRTLSMELKRDGTVVVHAPLRLGVEKIDAFVAAHEAWLARARTRQAER,-2.41

row,Sequence,soluble fraction (log2)
1,HMDRFVLQLSKRYYDSSIEGVRKALAAFPVKTELLDQDRGGRPFYHENGKENEPVFRIMFHPEEGM,-0.542
2,HMAVWRIKVNYIPGYGVNIWSSYKNGHFTGKRAMHGETYEVLETKKDQDGNTWYKLDDHQWIEGRYAINAK,-0.466
3,HMETQAGELQDAIRDAIAALPPRTREVFLMSRERNLRYGEIAEALGISVKAVEANMSRALRQLREKLSPFL,-0.454
4,HMKIETVENPLLERTEISALFDSKSGSLTRKEAIDLISKKARIDSSTVYAIKLSNSSGSTRIIGLFY,0.0692
5,HMPFREGDEVFVELVEPHMYNEDDAVAKLDGYVVAVRGAAGLVGQKVLVRIERVGRSSAEATLVA,0.109
6,HMQISDTTELSTLITKVLSEQSDALVDFKNPKKQKQVIGYLTGQVLRASQGKANPGLVRSLLEEQLSALDS,0.124
7,HMSINISFEPADHLGKDVIFIRFPYDNEWIQRVRKLKGAKWSQSQRAWHVPDTEHYRTLFQLPQKI,-2.6
8,HMFAKVEGITGDILDKLQQQRGFLALSDKSSPEAIYDTFGVSKKVFKQAIGTLFKQQKISIEAEGIRLV,-0.709
9,HMGKTTQEIEERSSTSTLTLTQTPKEIISVQGKKSDQSFFTNIQYTQNGKVIVPKQTGIYDTIKVVFTVSL,-1.2
10,HMFQPFFENLRKASIPVSLREYLTFLEGMKKGLVTYDIEAFYFLARAAMVKDERNIDKFDRAFSATFKG,-0.287
11,HMENFIPDDPKRIEIGMSVLHQRFGKGKVMQLEGNLPDMKATVNFEGEGQKQLLLKYARLKIV,-0.232
12,HMLRGKNALMSQLDQIQGIGPKRKRALFNHFLTLDAIKQADVETLRQAPGMNLPAAEQVYRHFHM,0.0637
13,HMPEVAHTIDMEAVNKHWDELPEREQRILVMRFYGNLTQTEIGERLGISQMHVSRLLARALSHLKSRLLD,-3.37
14,HMYNIDSFMTKNYPTMERFTLSDVQKKYKTTFGLFVKQDELASMIEKTGRFNITSSKNVKYVNR,-1.77
15,HMTSRFITTEEGTLYVDADGRKVSGWQTIDGSRYYFDEHGIRQSGTIEVNGETYVLDEDGVL,0.0747
16,HMRSMEKRLTAKVKRVQEGVQAKSQAGEQPFEVVKLMQRFPKLMQFGKHAEAETVLDKALELLGEE,0.172
17,HMQVSDVTTIRALVEEVLSSSPQQLAQYRAGKLSLKGYFVGQVMKKGKGQLNAAAVNNLLDEIL,-0.185
18,HMSVPEDLYFRELEVEGNKVRISGIASTNNRVSALMRNFDQSEWFRDPSLIKVESKSPGVNEFEIVMTRI,0.0509
19,HMKINVQETEVYRYLLERADRLYSMILGEERENLMERTRFFEKEVAKASLPHLPKLYDEFSIYLDRLERG,-0.138
20,HMSFGESLKKLSIALNSIRKLATTDAGKKDPKVADLLGQIRDTFNSYRTHLRKNYPDLYSGIKNQL,-0.62
21,HMKNETFAITSEDAGKRLDVWLTNILGDYSRSYVERLVEQGNVTVGGKTVKAGYKLKAGDSVQVSIPGPK,0.138
22,HMVKNTIHVDLKGEVNKPGVYEVEEGTIVNDLITLANGFTKNAYQDNINLSKKLTDEMVIVVSKKGS,0.337
23,HMNIIHNPSKNFIESDLNDLKEGMEIEHKKFGYGLIKSIDKTQNHQKAVVNFKLVGEKTLLLSFARLRIV,-2.75
24,HMDIAATTVKQKIRTLLADEDAARPLSDQKIADALAEDGIDVARRTVAKYREELGIEPSWARKR,0.0398
25,HMFPDRLRELRKGRNITLETLAEEMNKHLEPGQKPNTAAQIGNWERGDRSPSYIEVRKLADFFNVSMDFL,-0.636
26,HMPDGTATATASVNVRSGASTLSPVLGVLRVGESIGVTGQANGGWVPVNYNGRAGYVYAAYLSFD,-0.161

row,Sequence,soluble fraction (log2)
1,HMGTVISVDKARSIALAKVPGASANDIRIHLDRDDGRQIYEGEIYYNRMEYEFEIDASTGTIIEWSAEHW,-1.73
2,HMVKVSVYPNPAVDRITISGEVKAYAVYDATGKVVMKDTDYRGGAIGVSHLPAGIYIVRTDAGAVTVNK,-0.652
3,HMGESVQVPSYVGMGFREAARKARARDFGVAVSDSIYVPGKPPGEIIAQDPKAESRVKEGRTIYFTVAK,0.0425
4,HMEKPAQDVLASHREWMGEMIKAEHMTAKQVWRLLRERADIGVSYPTVKRYLRAHFQFGGPS,-1.28
5,HMNLSSETLSEMEARIGQMGVVELQDRRAYLLQEQEGTQNPSRLKEIADELSAIQKALVALV,0.1
6,HMQKPDIEVDFAEGDMVVVTGGAWKDTAGVITGINMQKQTVTINVELFGRETPVEISFTEIKKA,0.00574
7,HMVDPELFIWVESSKEPVYHLAYKIELFVHSTDPQDDVPVHRWQVFVDAHNGNILDKFDEVR,-0.159
8,HMVTDVDELEKLIQKVLDSNSSQVDEYRQGKEKVFGFFVGAVMKLTKGQADPDVVNQLLKEKLSGRK,0.195
9,HMHDPLATLTPREHEVMSLMAEGRTNAAIAQALVIGTGAVEKNVTSIFQKLGLDDSGTDHRRVLAVLAWLQ,-2.14
10,HMSEKELTDLIERIKERRLKLEMSYQDLSDATGISKSTLQRYETGYIKKVPINQIEILAKALHTTPSYLMG,-0.238
11,HMGNGDTNERIATLMQILAKQESIINQYGLENPVVSPQMYVRTLKKVVELSGFKDASSYFADIPDGWKA,-0.00533
12,HMSQISKLWRPSEDVTEILTRSGMDSEFLEGLIPEFIIYWSERADVLVSYNSKFIEHARLKWAQHSAEIKT,-2.63
13,HMSLGSNISRLRAEKHLSQGDLAEALDVSRQSVSKWETDGSVPDLDKLVKLSRIFGVTLDELVTGTP,0.0174
14,HMVQPSAAVRAHPVGAFVEQRQGLSDDQILALQKKWNEGIYARIQGTRWFLFSKDTPAVTSLLLVPDLP,-0.555
15,HMRMTKPLPFDLAAFRNEFGFTKSIIMQEVGVSRHIYDNVERTNATPPEFYDDFVSFFQRHGQ,-1.04
16,HMTGENWAERSRQLAAAGLLVLGKEAQEKIASLPNLIPLIEAAAASDTRLLNAQTIDELLSFVPTEETI,-0.05
17,HMYNPAYDAEIKVILELARHGYWEEARERADELLKAAPDDTGVKRIQTWVRQQEQRMREQAIEDSIRA,-0.0287
18,HMTALAVGDRVKMDKSATIYGTMRKFAAWVYATKLYVRGIDGNRVVVSTLKSGAITGAVDKKHLTK,-1.12
19,HMAGIPIHMSQLKQIILLLSQGYPIKGIARETGVSRNTIKGYLQTLTSQDLNVTDALKLENIQLEYLLRSP,-1.65
20,HMETVQTGTVKVSNSLNVRSGAGTNYSVLGSLSNGAKVEIVGTSGSWYKIKYGSGYGYVSKDYVTVS,-0.0163
21,HMEFVEERRNRMLDYIGENKRADVPELARHFDVTEVTIRRDLLILEQDGKLIRTHGGAMINR,-0.433
22,HMQPDPAFVAWVDANPWYKENRTLRALVHDYAEEVKRQEPALIGTAFLDRVKQLVQSEHPELFD,-0.0926
23,HMDPSHGESRENLDIMRIIDETHLEYPSWGYRKMTDHLRANHGYTINRKRVRRLMRLMDIIALFPG,-1.47
24,HMNPIEAQIEELKNKDQKTAYQALKHLLAISETRAEVSYYFDRFVALLQDPQSYVRTRGLLLIGA,0.271

# From the domain aggregation screens of Martell et al. (2025)
